Test results as given in the Human Domainome abundance scans (Beltran et al. 2025).
± gives the uncertainty stated by the source.

B1: Chromodomain-helicase-DNA-binding protein 4, residues 623 to 675; numbered along this chain, Q14839 (parent)
chain: MIHRILNHSVDKKGHVHYLIKWRDLPYDQASWESEDVEIQDYDLFKQSYWNHR
B2: LIM and senescent cell antigen-like-containing domain protein 2, residues 13 to 71; numbered along this chain, Q7Z4I7 (parent)
chain: AVCQRCQARFSPAERIVNSNGELYHEHCFVCAQCFRPFPEGLFYEFEGRKYCEHDFQML

Variants of: B1
Experiment: abundance fitness (aPCA) (normalised: wild type 0, dead -1); higher = more abundant; growth selection in yeast, the domain comes from the species named
Settings: Homo sapiens

| Variant | abundance fitness |
| --- | --- |
| I2E | -0.54 ± 0.3 |
| I2W | -0.856 ± 0.24 |
| I2H | -0.673 ± 0.11 |
| I2M | -0.761 ± 0.13 |
| I2L | -0.879 ± 0.096 |
| I2N | -0.751 ± 0.11 |
| I2T | -0.686 ± 0.099 |
| I2S | -0.708 ± 0.09 |
| I2K | -0.82 ± 0.16 |
| I2G | -0.802 ± 0.12 |
| I2Y | -0.882 ± 0.16 |
| I2Q | -0.931 ± 0.17 |
| I2C | -0.662 ± 0.11 |
| I2R | -0.734 ± 0.11 |
| I2F | -0.945 ± 0.13 |
| I2V | -0.589 ± 0.1 |
| I2A | -0.978 ± 0.15 |
| H3V | -0.629 ± 0.12 |
| H3C | -0.094 ± 0.13 |
| H3W | -0.245 ± 0.12 |
| H3S | -0.047 ± 0.09 |
| H3P | -0.741 ± 0.16 |
| H3F | -0.392 ± 0.19 |
| H3D | 0.235 ± 0.15 |
| H3I | -1.05 ± 0.28 |
| H3R | -0.376 ± 0.082 |

| Variant | abundance fitness |
| --- | --- |
| H3K | -0.56 ± 0.16 |
| H3E | 0.437 ± 0.14 |
| H3Q | 0.045 ± 0.12 |
| H3T | -0.282 ± 0.12 |
| H3N | -0.266 ± 0.13 |
| H3M | -0.416 ± 0.14 |
| H3A | -0.086 ± 0.096 |
| H3Y | -0.16 ± 0.13 |
| R4C | -0.08 ± 0.11 |
| R4D | -0.479 ± 0.17 |
| R4A | -0.535 ± 0.15 |
| M1R | -0.265 ± 0.22 |
| M1K | 0.112 ± 0.15 |
| M1H | -0.462 ± 0.31 |
| M1V | -0.015 ± 0.17 |
| M1L | -0.324 ± 0.14 |
| M1N | 0.277 ± 0.17 |
| M1D | -0.452 ± 0.3 |
| M1S | -0.23 ± 0.16 |
| M1G | -0.046 ± 0.25 |
| M1Q | -0.689 ± 0.48 |
| M1Y | 0.226 ± 0.16 |
| M1I | 0.148 ± 0.092 |
| M1T | -0.117 ± 0.12 |
| M1C | -0.25 ± 0.24 |
| M1F | -0.004 ± 0.19 |

Variants of: B2
Experiment: as above
Settings: Homo sapiens

| Variant | abundance fitness |
| --- | --- |
| AVCQRCQARFSPAERIVNSNGELYHEHCFVCAQCFRPFPEGLFYEFEGRKYCEHDFQMS [L59S] | -0.312 ± 0.083 |
| AVCQRCQARFSPAERIVNSNGELYHEHCFVCAQCFRPFPEGLFYEFEGRKYCEHDFQMQ [L59Q] | -0.069 ± 0.13 |
| AVCQRCQARFSPAERIVNSNGELYHEHCFVCAQCFRPFPEGLFYEFEGRKYCEHDFQMW [L59W] | -0.348 ± 0.096 |
| AVCQRCQARFSPAERIVNSNGELYHEHCFVCAQCFRPFPEGLFYEFEGRKYCEHDFQMN [L59N] | -0.676 ± 0.44 |
| AVCQRCQARFSPAERIVNSNGELYHEHCFVCAQCFRPFPEGLFYEFEGRKYCEHDFQMT [L59T] | -0.141 ± 0.11 |
| AVCQRCQARFSPAERIVNSNGELYHEHCFVCAQCFRPFPEGLFYEFEGRKYCEHDFQMY [L59Y] | -0.204 ± 0.19 |
| AVCQRCQARFSPAERIVNSNGELYHEHCFVCAQCFRPFPEGLFYEFEGRKYCEHDFQMR [L59R] | -0.123 ± 0.085 |
| AVCQRCQARFSPAERIVNSNGELYHEHCFVCAQCFRPFPEGLFYEFEGRKYCEHDFQMG [L59G] | 0.183 ± 0.14 |
| AVCQRCQARFSPAERIVNSNGELYHEHCFVCAQCFRPFPEGLFYEFEGRKYCEHDFQMF [L59F] | -0.616 ± 0.2 |
| AVCQRCQARFSPAERIVNSNGELYHEHCFVCAQCFRPFPEGLFYEFEGRKYCEHDFQMA [L59A] | 0.035 ± 0.12 |
| AVCQRCQARFSPAERIVNSNGELYHEHCFVCAQCFRPFPEGLFYEFEGRKYCEHDFQMC [L59C] | -0.033 ± 0.12 |
| AVCQRCQARFSPAERIVNSNGELYHEHCFVCAQCFRPFPEGLFYEFEGRKYCEHDFQMI [L59I] | 0.099 ± 0.16 |
| AVCQRCQARFSPAERIVNSNGELYHEHCFVCAQCFRPFPEGLFYEFEGRKYCEHDFQMP [L59P] | -0.235 ± 0.13 |
| AVCQRCQARFSPAERIVNSNGELYHEHCFVCAQCFRPFPEGLFYEFEGRKYCEHDFQME [L59E] | -0.373 ± 0.17 |
| AVCQRCQARFSPAERIVNSNGELYHEHCFVCAQCFRPFPEGLFYEFEGRKYCEHDFQMV [L59V] | 0.036 ± 0.098 |
| AVCQRCQARFSPAERIVNSNGELYHEHCFVCAQCFRPFPEGLFYEFEGRKYCEHDFQFL [M58F] | 0.154 ± 0.11 |

| Variant | abundance fitness |
| --- | --- |
| AVCQRCQARFSPAERIVNSNGELYHEHCFVCAQCFRPFPEGLFYEFEGRKYCEHDFQEL [M58E] | 0.061 ± 0.14 |
| AVCQRCQARFSPAERIVNSNGELYHEHCFVCAQCFRPFPEGLFYEFEGRKYCEHDFQTL [M58T] | 0.123 ± 0.077 |
| AVCQRCQARFSPAERIVNSNGELYHEHCFVCAQCFRPFPEGLFYEFEGRKYCEHDFQLL [M58L] | 0.04 ± 0.059 |
| AVCQRCQARFSPAERIVNSNGELYHEHCFVCAQCFRPFPEGLFYEFEGRKYCEHDFQQL [M58Q] | 0.013 ± 0.12 |
| AVCQRCQARFSPAERIVNSNGELYHEHCFVCAQCFRPFPEGLFYEFEGRKYCEHDFQCL [M58C] | 0.043 ± 0.12 |
| AVCQRCQARFSPAERIVNSNGELYHEHCFVCAQCFRPFPEGLFYEFEGRKYCEHDFQWL [M58W] | -0.055 ± 0.1 |
| AVCQRCQARFSPAERIVNSNGELYHEHCFVCAQCFRPFPEGLFYEFEGRKYCEHDFQGL [M58G] | 0.223 ± 0.14 |
| AVCQRCQARFSPAERIVNSNGELYHEHCFVCAQCFRPFPEGLFYEFEGRKYCEHDFQKL [M58K] | 0.043 ± 0.092 |
| AVCQRCQARFSPAERIVNSNGELYHEHCFVCAQCFRPFPEGLFYEFEGRKYCEHDFQVL [M58V] | 0.007 ± 0.094 |
| AVCQRCQARFSPAERIVNSNGELYHEHCFVCAQCFRPFPEGLFYEFEGRKYCEHDFQHL [M58H] | -0.052 ± 0.18 |
| AVCQRCQARFSPAERIVNSNGELYHEHCFVCAQCFRPFPEGLFYEFEGRKYCEHDFQNL [M58N] | 0.132 ± 0.12 |
| AVCQRCQARFSPAERIVNSNGELYHEHCFVCAQCFRPFPEGLFYEFEGRKYCEHDFQDL [M58D] | -0.106 ± 0.37 |
| AVCQRCQARFSPAERIVNSNGELYHEHCFVCAQCFRPFPEGLFYEFEGRKYCEHDFQPL [M58P] | -0.06 ± 0.094 |
| AVCQRCQARFSPAERIVNSNGELYHEHCFVCAQCFRPFPEGLFYEFEGRKYCEHDFQYL [M58Y] | -0.309 ± 0.16 |
| AVCQRCQARFSPAERIVNSNGELYHEHCFVCAQCFRPFPEGLFYEFEGRKYCEHDFQRL [M58R] | 0.066 ± 0.056 |
